Data reported in patent publication US20240424023A1.

Key:
[1] = target: CD80-mCherry expressed on DG75 cells (UniProt P33681); assay: cell-based or functional assay
[2] = target: CD86-mCherry expressed on DG75 cells (UniProt P42081); assay: cell-based or functional assay
UniProt P42081, sequence (P42081 24-329): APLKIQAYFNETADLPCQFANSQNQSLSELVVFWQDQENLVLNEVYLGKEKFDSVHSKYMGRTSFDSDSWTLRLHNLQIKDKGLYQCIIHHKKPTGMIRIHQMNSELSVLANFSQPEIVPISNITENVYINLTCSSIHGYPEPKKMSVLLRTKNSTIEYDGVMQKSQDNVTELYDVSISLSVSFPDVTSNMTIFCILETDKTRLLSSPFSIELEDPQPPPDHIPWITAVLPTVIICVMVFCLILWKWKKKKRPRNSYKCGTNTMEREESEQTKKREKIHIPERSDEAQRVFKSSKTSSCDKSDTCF

UniProt P33681, sequence (P33681 35-288): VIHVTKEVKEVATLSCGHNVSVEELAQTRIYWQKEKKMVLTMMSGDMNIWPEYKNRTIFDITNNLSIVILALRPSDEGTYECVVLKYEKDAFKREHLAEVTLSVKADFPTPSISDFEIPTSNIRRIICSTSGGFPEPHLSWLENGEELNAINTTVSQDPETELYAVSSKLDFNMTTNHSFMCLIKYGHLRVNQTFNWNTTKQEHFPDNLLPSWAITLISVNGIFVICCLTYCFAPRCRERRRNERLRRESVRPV

In the case of “CTLA4 expressed from a CTLA4-P2A-GFP transgene in human T cells (exon 1 cDNA insertion, intron 1 insertion of exons 2-4 with WPRE donor, or lentiviral vector) (from UniProt P16410 36-223) (receptor)”, the transendocytosis, cells edited with the cDNA exon 1 insertion (fold less than unedited cells) [1] was 2 and the transendocytosis, cells edited with the cDNA exon 1 insertion (fold less than unedited cells) [2] was 2.
